Legend:
[1] = target: T1, canine FcRn complex (FcRn-α subunit and β-microglobulin), biotin labeled by BirA, captured on SA chip … (canine, UniProt A0A8I3PFR8 25-296, biotin label by BirA enzymatic biotinylation (BAP tag)); test: SPR (Biacore), biotinylated FcRn captured on SA chip, IgG flowed, pH 7.4, 15 C
[2] = target: T1, canine FcRn complex (FcRn-α subunit and …); test: SPR (Biacore), biotinylated FcRn captured on SA chip, IgG flowed, pH 6, 15 C

T1 sequence (A0A8I3PFR8 entry or part of it, one chain of several): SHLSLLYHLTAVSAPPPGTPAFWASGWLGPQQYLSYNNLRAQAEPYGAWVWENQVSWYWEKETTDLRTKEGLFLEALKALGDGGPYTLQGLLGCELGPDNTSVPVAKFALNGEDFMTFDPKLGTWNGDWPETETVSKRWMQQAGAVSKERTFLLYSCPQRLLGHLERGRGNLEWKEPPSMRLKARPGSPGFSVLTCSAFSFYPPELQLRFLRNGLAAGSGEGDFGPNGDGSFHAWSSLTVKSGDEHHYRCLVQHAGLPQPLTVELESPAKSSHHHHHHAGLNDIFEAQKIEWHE

| Kd [1] [nM] | Kd [2] [nM] | Binder |
| --- | --- | --- |
| 146000 | 14.2 | caninized anti-IL31 antibody 34D03 (mAb1), canine IgGB, N434M (antibody) chain 1: EVQLVESGGDLVKPGGSLRLSCVASGFTFSNYGMSWVRQAPGKGLQWVATISYGGSYTYYPDNIKGRFTISRDNAKNTLYLQMNSLRAEDTAMYYCVRGYGYDTMDYWGQGTLVTVSSASTTAPSVFPLAPSCGSTSGSTVALACLVSGYFPEPVTVSWNSGSLTSGVHTFPSVLQSSGLYSLSSMVTVPSSRWPSETFTCNVAHPASKTKVDKPVPKRENGRVPRPPDCPKCPAPEMLGGPSVFIFPPKPKDTLLIARTPEVTCVVVDLDPEDPEVQISWFVDGKQMQTAKTQPREEQFNGTYRVVSVLPIGHQDWLKGKQFTCKVNNKALPSPIERTISKARGQAHQPSVYVLPPSREELSKNTVSLTCLIKDFFPPDIDVEWQSNGQQEPESKYRTTPPQLDEDGSYFLYSKLSVDKSRWQRGDTFICAVMHEALHMHYTQESLSHSPGK chain 2: EIVMTQSPASLSLSQEEKVTITCKASQSVSFAGTGLMHWYQQKPGQAPKLLIYRASNLEAGVPSRFSGSGSGTDFSFTISSLEPEDVAVYYCQQSREYPWTFGQGTKLEIK |
| 3.11 | 0.906 | caninized anti-IL31 antibody 34D03 (mAb1), canine IgGB, N434R (antibody) chain 1: EVQLVESGGDLVKPGGSLRLSCVASGFTFSNYGMSWVRQAPGKGLQWVATISYGGSYTYYPDNIKGRFTISRDNAKNTLYLQMNSLRAEDTAMYYCVRGYGYDTMDYWGQGTLVTVSSASTTAPSVFPLAPSCGSTSGSTVALACLVSGYFPEPVTVSWNSGSLTSGVHTFPSVLQSSGLYSLSSMVTVPSSRWPSETFTCNVAHPASKTKVDKPVPKRENGRVPRPPDCPKCPAPEMLGGPSVFIFPPKPKDTLLIARTPEVTCVVVDLDPEDPEVQISWFVDGKQMQTAKTQPREEQFNGTYRVVSVLPIGHQDWLKGKQFTCKVNNKALPSPIERTISKARGQAHQPSVYVLPPSREELSKNTVSLTCLIKDFFPPDIDVEWQSNGQQEPESKYRTTPPQLDEDGSYFLYSKLSVDKSRWQRGDTFICAVMHEALHRHYTQESLSHSPGK chain 2: EIVMTQSPASLSLSQEEKVTITCKASQSVSFAGTGLMHWYQQKPGQAPKLLIYRASNLEAGVPSRFSGSGSGTDFSFTISSLEPEDVAVYYCQQSREYPWTFGQGTKLEIK |
| 6960 | 20.2 | caninized anti-IL31 antibody 34D03 (mAb1), canine IgGB, N434S (antibody) chain 1: EVQLVESGGDLVKPGGSLRLSCVASGFTFSNYGMSWVRQAPGKGLQWVATISYGGSYTYYPDNIKGRFTISRDNAKNTLYLQMNSLRAEDTAMYYCVRGYGYDTMDYWGQGTLVTVSSASTTAPSVFPLAPSCGSTSGSTVALACLVSGYFPEPVTVSWNSGSLTSGVHTFPSVLQSSGLYSLSSMVTVPSSRWPSETFTCNVAHPASKTKVDKPVPKRENGRVPRPPDCPKCPAPEMLGGPSVFIFPPKPKDTLLIARTPEVTCVVVDLDPEDPEVQISWFVDGKQMQTAKTQPREEQFNGTYRVVSVLPIGHQDWLKGKQFTCKVNNKALPSPIERTISKARGQAHQPSVYVLPPSREELSKNTVSLTCLIKDFFPPDIDVEWQSNGQQEPESKYRTTPPQLDEDGSYFLYSKLSVDKSRWQRGDTFICAVMHEALHSHYTQESLSHSPGK chain 2: EIVMTQSPASLSLSQEEKVTITCKASQSVSFAGTGLMHWYQQKPGQAPKLLIYRASNLEAGVPSRFSGSGSGTDFSFTISSLEPEDVAVYYCQQSREYPWTFGQGTKLEIK |
| 21.8 | 5.91 | caninized anti-IL31 antibody 34D03 (mAb1), canine IgGB, N434Q (antibody) chain 1: EVQLVESGGDLVKPGGSLRLSCVASGFTFSNYGMSWVRQAPGKGLQWVATISYGGSYTYYPDNIKGRFTISRDNAKNTLYLQMNSLRAEDTAMYYCVRGYGYDTMDYWGQGTLVTVSSASTTAPSVFPLAPSCGSTSGSTVALACLVSGYFPEPVTVSWNSGSLTSGVHTFPSVLQSSGLYSLSSMVTVPSSRWPSETFTCNVAHPASKTKVDKPVPKRENGRVPRPPDCPKCPAPEMLGGPSVFIFPPKPKDTLLIARTPEVTCVVVDLDPEDPEVQISWFVDGKQMQTAKTQPREEQFNGTYRVVSVLPIGHQDWLKGKQFTCKVNNKALPSPIERTISKARGQAHQPSVYVLPPSREELSKNTVSLTCLIKDFFPPDIDVEWQSNGQQEPESKYRTTPPQLDEDGSYFLYSKLSVDKSRWQRGDTFICAVMHEALHQHYTQESLSHSPGK chain 2: EIVMTQSPASLSLSQEEKVTITCKASQSVSFAGTGLMHWYQQKPGQAPKLLIYRASNLEAGVPSRFSGSGSGTDFSFTISSLEPEDVAVYYCQQSREYPWTFGQGTKLEIK |
| 554 | 34.2 | caninized anti-IL31 antibody 34D03 (mAb1), canine IgGB, N434T (antibody) chain 1: EVQLVESGGDLVKPGGSLRLSCVASGFTFSNYGMSWVRQAPGKGLQWVATISYGGSYTYYPDNIKGRFTISRDNAKNTLYLQMNSLRAEDTAMYYCVRGYGYDTMDYWGQGTLVTVSSASTTAPSVFPLAPSCGSTSGSTVALACLVSGYFPEPVTVSWNSGSLTSGVHTFPSVLQSSGLYSLSSMVTVPSSRWPSETFTCNVAHPASKTKVDKPVPKRENGRVPRPPDCPKCPAPEMLGGPSVFIFPPKPKDTLLIARTPEVTCVVVDLDPEDPEVQISWFVDGKQMQTAKTQPREEQFNGTYRVVSVLPIGHQDWLKGKQFTCKVNNKALPSPIERTISKARGQAHQPSVYVLPPSREELSKNTVSLTCLIKDFFPPDIDVEWQSNGQQEPESKYRTTPPQLDEDGSYFLYSKLSVDKSRWQRGDTFICAVMHEALHTHYTQESLSHSPGK chain 2: EIVMTQSPASLSLSQEEKVTITCKASQSVSFAGTGLMHWYQQKPGQAPKLLIYRASNLEAGVPSRFSGSGSGTDFSFTISSLEPEDVAVYYCQQSREYPWTFGQGTKLEIK |
| 2750 | 6.16 | caninized anti-IL31 antibody 34D03 (mAb1), canine IgGB, N434V (antibody) chain 1: EVQLVESGGDLVKPGGSLRLSCVASGFTFSNYGMSWVRQAPGKGLQWVATISYGGSYTYYPDNIKGRFTISRDNAKNTLYLQMNSLRAEDTAMYYCVRGYGYDTMDYWGQGTLVTVSSASTTAPSVFPLAPSCGSTSGSTVALACLVSGYFPEPVTVSWNSGSLTSGVHTFPSVLQSSGLYSLSSMVTVPSSRWPSETFTCNVAHPASKTKVDKPVPKRENGRVPRPPDCPKCPAPEMLGGPSVFIFPPKPKDTLLIARTPEVTCVVVDLDPEDPEVQISWFVDGKQMQTAKTQPREEQFNGTYRVVSVLPIGHQDWLKGKQFTCKVNNKALPSPIERTISKARGQAHQPSVYVLPPSREELSKNTVSLTCLIKDFFPPDIDVEWQSNGQQEPESKYRTTPPQLDEDGSYFLYSKLSVDKSRWQRGDTFICAVMHEALHVHYTQESLSHSPGK chain 2: EIVMTQSPASLSLSQEEKVTITCKASQSVSFAGTGLMHWYQQKPGQAPKLLIYRASNLEAGVPSRFSGSGSGTDFSFTISSLEPEDVAVYYCQQSREYPWTFGQGTKLEIK |
| 25300 | 1.98 | caninized anti-IL31 antibody 34D03 (mAb1), canine IgGB, N434W (antibody) chain 1: EVQLVESGGDLVKPGGSLRLSCVASGFTFSNYGMSWVRQAPGKGLQWVATISYGGSYTYYPDNIKGRFTISRDNAKNTLYLQMNSLRAEDTAMYYCVRGYGYDTMDYWGQGTLVTVSSASTTAPSVFPLAPSCGSTSGSTVALACLVSGYFPEPVTVSWNSGSLTSGVHTFPSVLQSSGLYSLSSMVTVPSSRWPSETFTCNVAHPASKTKVDKPVPKRENGRVPRPPDCPKCPAPEMLGGPSVFIFPPKPKDTLLIARTPEVTCVVVDLDPEDPEVQISWFVDGKQMQTAKTQPREEQFNGTYRVVSVLPIGHQDWLKGKQFTCKVNNKALPSPIERTISKARGQAHQPSVYVLPPSREELSKNTVSLTCLIKDFFPPDIDVEWQSNGQQEPESKYRTTPPQLDEDGSYFLYSKLSVDKSRWQRGDTFICAVMHEALHWHYTQESLSHSPGK chain 2: EIVMTQSPASLSLSQEEKVTITCKASQSVSFAGTGLMHWYQQKPGQAPKLLIYRASNLEAGVPSRFSGSGSGTDFSFTISSLEPEDVAVYYCQQSREYPWTFGQGTKLEIK |
